The data set can be described thus: In vitro release test of Pluronic F127 hydrogel with model molecules. The conditions noted are these: F127 20% w/v, 60 ml H2O, 37° C., FIG. 6D. Format: physicochemical. On the procedure:
2 mL of loaded hydrogel containing 4 mg of myoglobin or prednisolone in a solution of 20% Pluronic F127 w/v were introduced into a dialysis membrane bag (MWCO 3500 Da), and the dialysis bag sealed at the end was incubated in 60 mL of release medium (distilled water) at 37° C. and was stirred at a rate of 50 rpm. Saturation conditions were avoided by means of frequent substitution of fresh water. At predetermined intervals, aliquots of 0.5 mL of release medium were removed and substituted with an equal volume of fresh solution. The release behaviour in vitro of hydrogel loaded with myoglobin was compared with that of hydrogel loaded with prednisolone. All the assays were conducted in triplicate. Release profiles were expressed in cumulative release percentages over time.
The loaded hydrogels were prepared by solubilising at low temperature, in a 5 ml vial, an exact quantity of model molecule (approximately 4-5 mg) in 2 ml of solution of F127 20% w/v; the solution was then brought to the hydrogel state by placing the hermetically sealed vial at 37° C. The vial, closed at the head with a perforated mesh, was then introduced into the release medium (60 ml bidistilled H2O, T=37° C.) and held under constant and gentle stirring. The release therefore occurred by means of diffusion from the upper surface of the gel to the dissolution medium. […]

In the case of myoglobin, the “release profile from Pluronic F127 hydrogel, comparison of the two model molecules” value is reported as “almost identical for the two different molecules”.
For `C[C@]12C=CC(=O)C=C1CC[C@@H]1[C@@H]2[C@@H](O)C[C@@]2(C)[C@H]1CC[C@]2(O)C(=O)CO` [prednisolone], the “release profile from Pluronic F127 hydrogel, comparison of the two model molecules” value is listed as “almost identical for the two different molecules”.
